Measured values from US20240181073A1, “Antibody-Drug Conjugates Comprising an Anti-BCMA Antibody” (Sorrento Therapeutics, Inc., priority 2021, published 2024).
Residue numbers refer to the chain shown, from its start.

T1: Human BCMA (B Cell Maturation Antigen) (human, UniProt Q02223 1-184)
T1 sequence: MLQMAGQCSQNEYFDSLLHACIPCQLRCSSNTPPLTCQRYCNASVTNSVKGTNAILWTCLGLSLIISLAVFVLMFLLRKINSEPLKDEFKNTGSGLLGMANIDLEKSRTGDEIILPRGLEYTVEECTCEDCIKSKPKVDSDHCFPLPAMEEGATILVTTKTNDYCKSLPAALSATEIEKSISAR

B1: anti-BCMA-AB1-Compound 7 (antibody, human IgG1, V domains shown)
VH: EVQLVESGGGLVKPGGSLRLSCAASGFTSSTAWMSWVRQAPGKGLEWVGRIKSKSDGGTTDYAAPVKGRFTISRDDSKNTLFLQMNSLKTEDTAVYYCAKGGGTYGYWGQGTTVTVSS
VL: QSVLTQPASVSGSPGQSVTISCTGTSSAHGGHYYVSWYQQHPGKAPKLMIYDVSNRPSGVSNRFSGSKSGNTASLTISGLQAEDEADYYCGSYTSSGSYVFGTGTKLTVL
modifications: drug-linker Compound 7 on antibody cysteine thiols (maleimide conjugation; positions not stated)
B2: anti-BCMA-AB1-Compound 5 (antibody, human IgG1, V domains shown)
VH: B1 VH
VL: B1 VL
modifications: drug-linker Compound 5 on antibody cysteine thiols (C-lock conjugation; positions not stated)
B3: anti-BCMA-AB1-Compound 6 (antibody, human IgG1, V domains shown)
VH: B1 VH
VL: B1 VL
modifications: drug-linker Compound 6 on antibody cysteine thiols (C-lock conjugation; positions not stated)
B4: anti-BCMA-AB1-Compound 4 (antibody, human IgG1, V domains shown)
VH: B1 VH
VL: B1 VL
modifications: drug-linker Compound 4 on antibody cysteine thiols (C-lock conjugation; positions not stated)
B5: anti-BCMA-AB1-Compound 8 (antibody, human IgG1, V domains shown)
VH: B1 VH
VL: B1 VL
modifications: drug-linker Compound 8 on antibody cysteine thiols (maleimide conjugation; positions not stated)
B6: anti-BCMA-AB2-Compound 3 (antibody, V domains shown)
VH: B1 VH
VL: B1 VL with V3A, A28D, H29G, Y33T, G59W
modifications: drug-linker Compound 3 on antibody cysteine thiols (positions not stated)
B7: anti-BCMA-AB2-Compound 4 (antibody, V domains shown)
VH: B1 VH
VL: B1 VL with V3A, A28D, H29G, Y33T, G59W
modifications: drug-linker Compound 4 on antibody cysteine thiols (positions not stated)
B8: anti-BCMA-AB2-Compound 7 (antibody, V domains shown)
VH: B1 VH
VL: B1 VL with V3A, A28D, H29G, Y33T, G59W
modifications: drug-linker Compound 7 on antibody cysteine thiols (positions not stated)
B9: anti-BCMA-AB2-Compound 5 (antibody, V domains shown)
VH: B1 VH
VL: B1 VL with V3A, A28D, H29G, Y33T, G59W
modifications: drug-linker Compound 5 on antibody cysteine thiols (positions not stated)
B10: anti-BCMA-AB2-Compound 8 (antibody, V domains shown)
VH: B1 VH
VL: B1 VL with V3A, A28D, H29G, Y33T, G59W
modifications: drug-linker Compound 8 on antibody cysteine thiols (positions not stated)
B11: anti-BCMA-AB2-Compound 6 (antibody, V domains shown)
VH: B1 VH
VL: B1 VL with V3A, A28D, H29G, Y33T, G59W
modifications: drug-linker Compound 6 on antibody cysteine thiols (positions not stated)
B12: ADC-52 (conjugate)
VH: B1 VH
VL: B1 VL
B13: ADC-50 (conjugate)
VH: B1 VH
VL: B1 VL
B14: ADC-51 (conjugate)
VH: B1 VH
VL: B1 VL
B15: ADC-53 (conjugate)
VH: B1 VH
VL: B1 VL
B16: anti-BCMA-AB1-Compound 1 (antibody, human IgG1, V domains shown)
VH: B1 VH
VL: B1 VL
modifications: drug-linker Compound 1 on antibody cysteine thiols (positions not stated)
B17: anti-BCMA-AB1-Compound 2 (antibody, human IgG1, V domains shown)
VH: B1 VH
VL: B1 VL
modifications: drug-linker Compound 2 on antibody cysteine thiols (positions not stated)
B18: BCMA-AB2-3: Compound 3 conjugated with anti-BCMA antibody clone BCA7-2E1 (AB2) (conjugate)
VH: B1 VH
VL: B1 VL with V3A, A28D, H29G, Y33T, G59W

Target: T1, Human BCMA (B Cell Maturation Antigen)
Assay: cell-based or functional assay
Settings: not given

Row | Molecule | EC50 of cell viability (Cell Titer-Glo), MM.1R (BCMA+) cells, 4-day assay | EC50 of cell viability (Cell Titer-Glo), NCI-H929 (BCMA+) cells, 4-day assay
1 | B1 | 37.7 nM | 2.64 nM
2 | B2 | 20.5 nM | 3.04 nM
3 | B3 | 16.6 nM | 2.38 nM
4 | B4 | > 1000 nM | 13.1 nM
5 | B5 | 348 nM | 5.15 nM

Target: T1, Human BCMA (B Cell Maturation Antigen)
Assay: cell-based or functional assay
Settings: not given
Remark: another data set of the same source

Row | Molecule | EC50 of cell viability (Cell Titer-Glo), MM.1R (BCMA+) cells | EC50 of cell viability (Cell Titer-Glo), NCI-H929 (BCMA+) cells
6 | B6 | 55.3 nM | 7.31 nM
7 | B7 | > 1000 nM | 59 nM
8 | B8 | 259 nM | 19.4 nM
9 | B9 | 143 nM | 10 nM
10 | B10 | > 1000 nM | 29.7 nM
11 | B11 | 129 nM | 9.44 nM

Test system: BCMA-positive NCI-H929
Assay: In vitro cytotoxicity assay (CellTiter-Glo 2.0, 384-well), Example B2
Format: cell-based, human
Settings: 5-day assays, FIG. 8
Protocol: (§1) The in vitro efficacies of ADCs anti-BCMA-Compound 50, anti-BCMA-Compound 51, anti-BCMA-Compound 52, and anti-BCMA-Compound 53, were compared to anti-BCMA-Compound 3. Anti-BCMA-AB1 clone was conjugated with compounds 50, 51, 52, 53 or 3 and the ADCs were evaluated using the following human cancer cell lines: BCMA-negative K562 and BCMA-positive NCI-H929, purchased from the American Type Culture Collection (ATCC; Manassas, VA).
(§2) Cell Culture Method: The cell lines were cultured in RPMI-1640 medium (Catalog #10-041-CV: Corning) supplemented with 10-20% fetal bovine serum (FBS; Catalog #MT35011CV; Corning) and 1× penicillin-streptomycin (Catalog #30-002-Cl, Corning) and maintained at 37° C. in a 5% C02 humidified environment. Viable cell counts were made by Trypan blue exclusion using a Countess or Countess II automated cell counter.
(§3) The in vitro assays were performed as follows: All cells were harvested by removal of a portion of the cell culture suspension followed by centrifugation at 300 g for 5 minutes, followed by resuspension in cell culture medium (described above in Cell Culture method), viable cell count (as described above in Cell Culture method), and then seeded into 384-well white wall clear bottom plates (Catalog #3765, Corning) at a density of 2,500 cells/well in growth media. Plates were maintained at 37° C. The outer wells of plates contained medium only and were used for background subtraction for the cell viability assay. Working solutions of test articles were prepared at 2× final concentrations with 5-fold serial dilutions in complete growth medium. Cell treatment was performed in either technical triplicates or duplicates and maintained at 37° C. for 120-hour assay. After treatment, cell viability was determined by CellTiter-Glo 2.0 assay (Catalog #G9243; Promega; Madison, WI, USA) based on the manufacturer's instructions. CellTiter Glo reagent reacts with ATP in metabolically active cells to give a luminescent readout that is directly proportional to the number of viable cells. Briefly, plates were removed from the incubator and equilibrated to room temperature before addition of CellTiter Glo reagent. Luminescence was measured using a Tecan Spark microplate reader (Tecan; Mannedorf, Switzerland).
(§4) Data Analysis: For Cytotoxicity assays, raw luminescence data was background subtracted with average luminescence from the outer wells containing medium only and normalized to untreated controls using Excel (Microsoft; Albuquerque, NM). Dose-response relationships and EC50 values were determined based on non-linear regression analysis of normalized data fit to a four-parameter logistic equation using GraphPad Prism 8.0.

Row | Molecule | effect on NCI-H929 cell viability
12 | B12 | dose-dependently reduced
13 | B13 | dose-dependently reduced
14 | B14 | dose-dependently reduced
15 | B15 | dose-dependently reduced

Same assay, conditions: NCI-H929

Row | Molecule | enhanced potency compared to ADC-3 | decrease in potency, ADC-50 (C-lock linkage) relative to ADC-53 (PFP linkage)
16 | B12 | ~2 fold | –
17 | B13 | – | more than 2 fold

Same assay, conditions: Table 7; 120-hour (5-day) assay; AB1 clone

Row | Molecule | EC50
18 | B13 | 0.76 nM

Same assay, conditions: comparison of linker chemistry among C-lock conjugations

Row | Molecule | EC50 order of magnitude
19 | B12 | sub-nanomolar
20 | B13 | sub-nanomolar
21 | B14 | single digit nanomolar

Test system: BCMA-negative K562
Assay: as above
Format: cell-based, human
Settings: 5-day assays, FIG. 8
Protocol: as §1, §2, §3, §4

Row | Molecule | activity against K562 cells
22 | B12 | did not show activity
23 | B13 | did not show activity
24 | B14 | did not show activity
25 | B15 | did not show activity

Target: T1, Human BCMA (B Cell Maturation Antigen)
Assay: cell-based or functional assay
Settings: not given
Remark: another data set of the same source

Row | Molecule | EC50 of cell viability (Cell Titer-Glo), MM.1R (BCMA+) cells, 5-day assay | EC50 of cell viability (Cell Titer-Glo), NCI-H929 (BCMA+) cells, 5-day assay
26 | B16 | 1.02 nM | 0.168 nM
27 | B17 | 0.987 nM | 0.316 nM

Test system: NCI-H929 tumor xenograft
Assay: In vivo efficacy, NCI-H929 tumor xenograft in SCID beige mice
Parameters: species or system CB17 SCID beige mice
Settings: Experiment IV, FIG. 6; both regimens
Protocol: Female CB17 SCID beige mice, 6 weeks of age, were purchased from Charles River Laboratories.
Human multiple myeloma tumor cell lines NCI-H929 and OPM2 were cultured and expanded in RPMI 1640 medium supplemented with 10% FBS, 100 units/ml of penicillin and 100 μg/ml of streptomycin at 37° C. in a 5% CO2 humidified environment for a period of 2-3 weeks before harvesting for implantation. Cell viability determined by Trypan blue dye exclusion assay was >90% before implantation. 5 million of OPM2 or NCI-H929 cells in 100 μl of PBS—Matrigel 1:1 (v/v) mixture were inoculated to the right upper flank of each mouse by s.c. injection.
Tumor volume measurement was started at day 14 after tumor cell inoculation and performed twice weekly. The longest longitudinal diameter as length and the widest transverse diameter as width were measured by using a digital caliper. Tumor volume (TV) were then calculated by the formula: TV=[length×(width)^2]/2 and were analyzed in Excel.
The treatment was started when average tumor size reaches ˜400, 200 and 150 mm^3 for NCI-H929 tumor xenografts in Experiment I, III and IV, respectively, or ˜240 mm^3 for OPM2 tumor xenograft in Experiment I.
Mice were euthanized when tumor size reached 2000 mm^3.
After tumor-bearing mice were randomized, anti-BCMA antibody (BCMA-AB1 or BCMA-AB2), anti-BCMA antibody conjugate with Compound 3 (BCMA-AB1-3 or BCMA-AB2-3) or iso-type antibody conjugate with Compound 3 (iso-3) diluted in PBS were administered to mice through i.p. injections. Treatment regimens included 8 mg/kg once, 4 mg/kg Q1W×2 and 2 mg/kg biw×4 of anti-BCMA-AB1 or anti-BCMA-AB1-Compound 3 in Experiment I (FIG. 3); 2 mg/kg biw×4 and 0.67 mg/kg biw×4 of anti-BCMA-AB1 or anti-BCMA-AB1-Compound 3 in Experiment II (FIG. 4); 1, 2, 4, and 8 mg/kg once of anti-BCMA-AB1-Compound 3 or iso-3 in Experiment III (FIG. 5); and 4 mg/kg biw×4 of anti-BCMA-AB2 or 2 and 4 mg/kg biw×4 of anti-BCMA-AB2-Compound 3 in Experiment IV (FIG. 6).
Raw data of tumor measurements were analyzed in Excel. Tumor growth curves were plotted using GraphPad Prism 8.0 software and values were presented as mean t SEM.

Row | Molecule | tumor regression / elimination
28 | B18 | induced dramatic and prolonged tumor regressions and eliminated all tumors in about two weeks after initial treatments

Same assay, conditions: Experiment IV, FIG. 6; i.p.; 2 and 4 mg/kg biw×4

Row | Molecule | tumor growth
29 | B18 | significantly inhibited tumor growth
